Read-outs that look alike come from different tables or passages of the source.
Legend:
[1] = ELISA for specific binding of the antibody to immobilized biotinylated theophylline; details: biotinylated theophylline 500 ng/mL on streptavidin plates; antibody 50-3000 ng/mL; anti-huFc Fab-HRP/ABTS, absorbance 405 nm
Procedure: To determine specific binding of the antibody by ELISA, Streptavidin coated ELISA plates were loaded with biotinylated theophylline (500 ng/mL in PBS) and incubated for 30 minutes at room temperature. After washing twice to remove unbound antigen, antibodies were added at concentrations between 50 and 3000 ng/mL (in PBS) and incubated for 30 minutes. After washing twice, bound antibody was detected with an anti-huFc Fab-HRP conjugate and ABTS substrate (with absorbance measurement at 405 nm).

[2] = Surface-plasmon-resonance (SPR) analysis of the affinity of antibody binding to theophylline
Excerpt: FIG. 3 Binding profiles of the theophylline binding antibodies in SPR experiments.
To determine the affinity of specific binding of the antibody to theophylline, surface-plasmon-resonance (SPR) analyses were applied.

[3] = read-out: calculated affinities (KD)

| ka [2] | kd [2] | Kd ([2]; read-out: KD) | Kd [2, 3] | Kd ([2]; unit inferred, read-out: KD) | Molecule | binding to theophylline immobilized on the ELISA plate [1] |
| --- | --- | --- | --- | --- | --- | --- |
| 1.31E+05 | 0.002214 | 17 nM | 17 nM | 17 nM | humanized antibody: humanized anti-theophylline antibody; VH SEQ ID NO: 12 (V71R), VL SEQ ID NO: 16 (R46L); human IgG1/kappa constant regions (antibody, V domains shown, human IgG1/kappa constant regions; humanized VH; humanized VL) VH: QVQLQESGPGLVKPSQTLSLTCTVSGYSITSDYAWNWIRQHPGKGLEWIGYIRYSGHTGYNPSLKSRVTISRDTSKNQFSLKLSSVTAADTAVYYCARWVDYFDYWGQGTLVTVSS VL: DVVMTQSPLSLPVTLGQPASISCRSSQSIVYNNRYTYLEWFQQRPGQSPRLLIYGVSNRFSGVPDRFSGSGSGTDFTLKISRVEAEDVGVYYCYQGTHAPYTFGQGTKLEIK | binds specifically and dose dependent to theophylline |
| 1.12E+05 | 0.00228 | 20.3 nM | 20 nM | 20.3 nM | murine antibody: murine anti-theophylline antibody, IgG1 kappa, from mouse hybridoma; VH SEQ ID NO: 04, VL SEQ ID NO: 08 (antibody, listed as Mus musculus, V domains shown) VH: DVQLQESGPGLVKPSQSLSLTCAVTGYSITSDYAWNWIRQFPGNRLEWMGYIRYSGHTGYNPSLKSRISITRDTFKNQFFLQFNSVTTEDTATYYCARWVDYFDYWGQGTTLTVSS VL: DVVMTQSPLSLPVSLGDQASISCRSSQSIVYNNRYTYLEWFVQKPGQSLKLLIYGVSNRFSGVPDRFSGSGSGTDFTLKISRVEAEDMGVYYCYQGTHAPYTFGGGTKLEIK |  |

— patent publication US9925272B2, “Anti-theophylline antibodies and methods of use” (Hoffmann-La Roche Inc., priority 2012, dated 2018)
